Experiments:
HeLa Kyoto [1] = test: solubility change mitosis vs G1/S (difference of NP-40 vs SDS log2 ratios) (log2 ratio difference); higher = more soluble in mitosis
HeLa Kyoto [2] = test: thermal stability score vs G1/S (z-score of summed log2 fold changes over temperatures); higher = more thermally stable than in G1/S
HeLa Kyoto [3] = test: solubility in G1/S (NP-40 vs SDS abundance) (log2 ratio); higher = more soluble; conditions: cell cycle stage: G1/S
HeLa Kyoto [4] = test: melting temperature (median over replicates), in situ; higher = more thermally stable
[5] = cell cycle stage: early G1 (4.5 h after nocodazole release)
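For melting temperature (median over replicates), in situ in this document: HeLa Kyoto cells synchronized by double thymidine or nocodazole block, proteins quantified by TMT10plex mass spectrometry, three independent biological replicates.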
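For solubility change mitosis vs G1/S (difference of NP-40 vs SDS log2 ratios) in this document: synchronized HeLa Kyoto cells (double thymidine block for G1/S, nocodazole release for mitosis), protein amounts in NP-40 versus SDS lysates quantified by mass spectrometry, three biological replicates.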
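For solubility in G1/S (NP-40 vs SDS abundance) in this document: HeLa Kyoto cells arrested at G1/S by double thymidine block, proteins quantified by TMT10plex mass spectrometry in mild NP-40 versus SDS extracts, three biological replicates.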
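For thermal stability score vs G1/S (z-score of summed log2 fold changes over temperatures) in this document: synchronized HeLa Kyoto cells, proteins quantified by TMT10plex mass spectrometry, three biological replicates, mitosis taken 0.5 h after nocodazole release, G1/S directly after double thymidine block.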

MTR, sequence (chain, as listed by the source): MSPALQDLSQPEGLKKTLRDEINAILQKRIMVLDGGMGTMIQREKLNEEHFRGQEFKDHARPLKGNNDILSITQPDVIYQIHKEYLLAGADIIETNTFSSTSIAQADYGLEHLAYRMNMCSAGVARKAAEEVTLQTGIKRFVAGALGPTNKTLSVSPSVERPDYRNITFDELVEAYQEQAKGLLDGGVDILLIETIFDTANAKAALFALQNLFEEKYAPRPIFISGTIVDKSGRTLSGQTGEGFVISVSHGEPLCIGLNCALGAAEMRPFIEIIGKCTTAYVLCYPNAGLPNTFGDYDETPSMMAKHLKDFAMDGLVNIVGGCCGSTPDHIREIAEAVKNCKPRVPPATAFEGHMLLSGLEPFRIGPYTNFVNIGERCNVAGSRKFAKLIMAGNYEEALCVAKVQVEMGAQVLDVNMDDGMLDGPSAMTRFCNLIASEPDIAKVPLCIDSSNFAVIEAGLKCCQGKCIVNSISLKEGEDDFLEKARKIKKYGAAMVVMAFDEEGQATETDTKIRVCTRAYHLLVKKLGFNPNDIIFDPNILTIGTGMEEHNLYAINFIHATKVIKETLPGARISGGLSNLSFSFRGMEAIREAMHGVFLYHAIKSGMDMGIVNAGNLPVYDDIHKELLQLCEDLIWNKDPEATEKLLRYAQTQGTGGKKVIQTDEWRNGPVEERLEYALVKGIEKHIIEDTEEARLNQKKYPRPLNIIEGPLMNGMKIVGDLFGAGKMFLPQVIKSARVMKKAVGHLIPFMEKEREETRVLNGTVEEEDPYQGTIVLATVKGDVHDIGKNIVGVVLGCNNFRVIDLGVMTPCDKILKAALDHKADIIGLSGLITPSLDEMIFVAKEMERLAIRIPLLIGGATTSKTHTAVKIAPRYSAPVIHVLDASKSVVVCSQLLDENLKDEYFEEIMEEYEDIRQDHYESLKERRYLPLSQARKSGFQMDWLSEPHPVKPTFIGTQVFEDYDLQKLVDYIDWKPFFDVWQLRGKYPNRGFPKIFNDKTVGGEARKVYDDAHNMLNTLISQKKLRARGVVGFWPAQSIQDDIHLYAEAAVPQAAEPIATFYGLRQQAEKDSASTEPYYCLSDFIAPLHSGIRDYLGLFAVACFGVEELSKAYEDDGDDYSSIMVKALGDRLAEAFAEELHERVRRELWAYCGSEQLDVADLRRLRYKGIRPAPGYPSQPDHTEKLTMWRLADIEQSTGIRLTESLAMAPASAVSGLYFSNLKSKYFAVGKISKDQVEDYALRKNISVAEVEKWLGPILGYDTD

Substance	solubility change mitosis (log2) (HeLa Kyoto [1])	thermal stability score (HeLa Kyoto [2]; [5])	thermal stability score (HeLa Kyoto [2]; cell cycle stage: mitosis)	solubility in G1/S (log2) (HeLa Kyoto [3])	melting temperature (HeLa Kyoto [4]; cell cycle stage: G1/S)	melting temperature (HeLa Kyoto [4]; cell cycle stage: mitosis)
MTLDMDAVLSDFVRSTGAEPGLARDLLEGKNWDVNAALSDFEQLRQVHAGNLPPSFSEGSGGSRTPEKGFSDREPTRPPRPILQRQDDIVQEKRLSRGISHASSSIVSLARSHVSSNGGGGGSNEHPLEMPICAFQLPDLTVYNEDFRSFIERDLIEQSMLVALEQAGRLNWWVSVDPTSQRLLPLATTGDGNCLLHAASLGMWGFHDRDLMLRKALYALMEKGVEKEALKRRWRWQQTQQNKESGLVYTEDEWQKEWNELIKLASSEPRMHLGTNGANCGGVESSEEPVYESLEEFHVFVLAHVLRRPIVVVADTMLRDSGGEAFAPIPFGGIYLPLEVPASQCHRSPLVLAYDQAHFSALVSMEQKENTKEQAVIPLTDSEYKLLPLHFAVDPGKGWEWGKDDSDNVRLASVILSLEVKLHLLHSYMNVKWIPLSSDAQAPLAQPESPTASAGDEPRSTPESGDSDKESVGSSSTSNEGGRRKEKSKRDREKDKKRADSVANKLGSFGKTLGSKLKKNMGGLMHSKGSKPGGVGTGLGGSSGTETLEKKKKNSLKSWKGGKEEAAGDGPVSEKPPAESVGNGGSKYSQEVMQSLSILRTAMQGEGKFIFVGTLKMGHRHQYQEEMIQRYLSDAEERFLAEQKQKEAERKIMNGGIGGGPPPAKKPEPDAREEQPTGPPAESRAMAFSTGYPGDFTIPRPSGGGVHCQEPRRQLAGGPCVGGLPPYATFPRQCPPGRPYPHQDSIPSLEPGSHSKDGLHRGALLPPPYRVADSYSNGYREPPEPDGWAGGLRGLPPTQTKCKQPNCSFYGHPETNNFCSCCYREELRRREREPDGELLVHRF [OTUD7B]	-0.0993	0.347	0.243	0.376	50.8 °C	50.9 °C
MTLESMMACCLSDEVKESKRINAEIEKQLRRDKRDARRELKLLLLGTGESGKSTFIKQMRIIHGAGYSEEDKRGFTKLVYQNIFTAMQAMIRAMETLKILYKYEQNKANALLIREVDVEKVTTFEHQYVSAIKTLWEDPGIQECYDRRREYQLSDSAKYYLTDVDRIATLGYLPTQQDVLRVRVPTTGIIEYPFDLENIIFRMVDVGGQRSERRKWIHCFENVTSIMFLVALSEYDQVLVESDNENRMEESKALFRTIITYPWFQNSSVILFLNKKDLLEDKILYSHLVDYFPEFDGPQRDAQAAREFILKMFVDLNPDSDKIIYSHFTCATDTENIRFVFAAVKDTILQLNLKEYNLV [GNA11]	-0.121	0.848	0.911	-0.276	51.1 °C	50.6 °C
MTMDKSELVQKAKLAEQAERYDDMAAAMKAVTEQGHELSNEERNLLSVAYKNVVGARRSSWRVISSIEQKTERNEKKQQMGKEYREKIEAELQDICNDVLELLDKYLIPNATQPESKVFYLKMKGDYFRYLSEVASGDNKQTTVSNSQQAYQEAFEISKKEMQPTHPIRLGLALNFSVFYYEILNSPEKACSLAKTAFDEAIAELDTLNEESYKDSTLIMQLLRDNLTLWTSENQGDEGDAGEGEN [YWHAB]	0.402	-1.46	-2.76	0.324	52.6 °C	52.8 °C
MTPSQVAFEIRGTLLPGEVFAICGSCDALGNWNPQNAVALLPENDTGESMLWKATIVLSRGVSVQYRYFKGYFLEPKTIGGPCQVIVHKWETHLQPRSITPLESEIIIDDGQFGIHNGVETLDSGWLTCQTEIRLRLHYSEKPPVSITKKKLKKSRFRVKLTLEGLEEDDDDRVSPTVLHKMSNSLEISLISDNEFKCRHSQPECGYGLQPDRWTEYSIQTMEPDNLELIFDFFEEDLSEHVVQGDALPGHVGTACLLSSTIAESGKSAGILTLPIMSRNSRKTIGKVRVDYIIIKPLPGYSCDMKSSFSKYWKPRIPLDVGHRGAGNSTTTAQLAKVQENTIASLRNAASHGAAFVEFDVHLSKDFVPVVYHDLTCCLTMKKKFDADPVELFEIPVKELTFDQLQLLKLTHVTALKSKDRKESVVQEENSFSENQPFPSLKMVLESLPEDVGFNIEIKWICQQRDGMWDGNLSTYFDMNLFLDIILKTVLENSGKRRIVFSSFDADICTMVRQKQNKYPILFLTQGKSEIYPELMDLRSRTTPIAMSFAQFENLLGINVHTEDLLRNPSYIQEAKAKGLVIFCWGDDTNDPENRRKLKELGVNGLIYDRIYDWMPEQPNIFQVEQLERLKQELPELKSCLCPTVSRFVPSSLCGESDIHVDANGIDNVENA [GPCPD1]	-0.12	-0.29	-0.26	0.0477	50 °C	50.6 °C
MTQAEIKLCSLLLQEHFGEIVEKIGVHLIRTGSQPLRVIAHDTGTSLDQVKKALCVLVQHNLVSYQVHKRGVVEYEAQCSRVLRMLRYPRYIYTTKTLYSDTGELIVEELLLNGKLTMSAVVKKVADRLTETMEDGKTMDYAEVSNTFVRLADTHFVQRCPSVPTTENSDPGPPPPAPTLVINEKDMYLVPKLSLIGKGKRRRSSDEDAAGEPKAKRPKYTTDNKEPIPDDGIYWQANLDRFHQHFRDQAIVSAVANRMDQTSSEIVRTMLRMSEITTSSSAPFTQPLSSNEIFRSLPVGYNISKQVLDQYLTLLADDPLEFVGKSGDSGGGMYVINLHKALASLATATLESVVQERFGSRCARIFRLVLQKKHIEQKQVEDFAMIPAKEAKDMLYKMLSENFMSLQEIPKTPDHAPSRTFYLYTVNILSAARMLLHRCYKSIANLIERRQFETKENKRLLEKSQRVEAIIASMQATGAEEAQLQEIEEMITAPERQQLETLKRNVNKLDASEIQVDETIFLLESYIECTMKRQ [POLR3C]	-0.0973	1.65	1.67	0.132	50.5 °C	51.1 °C
MTR	-0.144	-0.177	0.37	0.00491	48.6 °C	49.9 °C
MTSKQAMSSNEQERLLCYNGEVLVFQLSKGNFADKEPTKTPILHVRRMVFDRGTKVFVQKSTGFFTIKEENSHLKIMCCNCVSDFRTGINLPYIVIEKNKKNNVFEYFLLILHSTNKFEMRLSFKLGYEMKDGLRVLNGPLILWRHVKAFFFISSQTGKVVSVSGNFSSIQWAGEIENLGMVLLGLKECCLSEEECTQEPSKSDYAIWNTKFCVYSLESQEVLSDIYIIPPAYSSVVTYVHICATEIIKNQLRISLIALTRKNQLISFQNGTPKNVCQLPFGDPCAVQLMDSGGGNLFFVVSFISNNACAVWKESFQVAAKWEKLSLVLIDDFIGSGTEQVLLLFKDSLNSDCLTSFKITDLGKINYSSEPSDCNEDDLFEDKQENRYLVVPPLETGLKVCFSSFRELRQHLLLKEKIISKSYKALINLVQGKDDNTSSAEEKECLVPLCGEEENSVHILDEKLSDNFQDSEQLVEKIWYRVIDDSLVVGVKTTSSLKLSLNDVTLSLLMDQAHDSRFRLLKCQNRVIKLSTNPFPAPYLMPCEIGLEAKRVTLTPDSKKEESFVCEHPSKKECVQIITAVTSLSPLLTFSKFCCTVLLQIMERESGNCPKDRYVVCGRVFLSLEDLSTGKYLLTFPKKKPIEHMEDLFALLAAFHKSCFQITSPGYALNSMKVWLLEHMKCEIIKEFPEVYFCERPGSFYGTLFTWKQRTPFEGILIIYSRNQTVMFQCLHNLIRILPINCFLKNLKSGSENFLIDNMAFTLEKELVTLSSLSSAIAKHESNFMQRCEVSKGKSSVVAAALSDRRENIHPYRKELQREKKKMLQTNLKVSGALYREITLKVAEVQLKSDFAAQKLSNL [FANCB]	-0.0928	1.37	0.274	-0.208	53.7 °C	53.8 °C
MTSLYGRHAEKTTDMPKPSAPKVHVQRSVSRDTIAIHFSASGEEEEEEEEEFREYFEEGLDDQSIVTGLEAKEDLYLEPQVGHDPAGPAASPVLADGLSVSQAPAILPVSKNTVKLLESPVPAAQVLSTVPLAVSPGSSSSGPLASSPSVSSLSEQKTSSSSPLSSPSKSPILSSSASTSTLSSAKPFMSLVKSLSTEVEPKESPHPARHRHLMKTLVKSLSTDTSRQESDTVSYKPPDSKLNLHLFKQFTQPRNTGGDSKTAPSSPLTSPSDTRSFFKVPEMEAKIEDTKRRLSEVIYEPFQLLSKIIGEESGSHRPKALSSSASELSNLSSLNGHLESNNNYSIKEEECDSEGDGYGSDSNIPRSDHPKSTGEPTREIELKSSQGSSLKDLGLKTSSLVLEKCSLSALVSKEDEEFCELYTEDFDLETEGESKVDKLSDIPLKPEVLAEDGVVLDSEDEVDSAVQHPELPVKTLGFFIMCVYVYLILPLPHYVSGLFLGIGLGFMTAVCVIWFFTPPSAHKYHKLHKNLRHWNTRSLDIKEPEILKGWMNEIYNYDPETYHATLTHSVFVRLEGGTLRLSKPNKNISRRASYNEPKPEVTYISQKIYDLSDSKIYLVPKTLARKRIWNKKYPICIELGQQDDFMSKAQTDKETSEEKPPAEGSEDPKKPPRPQEGTRSSQRDQILYLFGRTGREKEEWFRRFILASKLKSEIKKSSGVSGGKPGLLPAHSRHNSPSGHLTHSRSSSKGSVEEIMSQPKQKELAGSVRQKMLLDYSVYMGRCVPQESRSPQRSPLQSAESSPTAGKKLPEVPPSEEEEQEAWVNALLGRIFWDFLGEKYWSDLVSKKIQMKLSKIKLPYFMNELTLTELDMGVAVPKILQAFKPYVDHQGLWIDLEMSYNGSFLMTLETKMNLTKLGKEPLVEALKVGEIGKEGCRPRAFCLADSDEESSSAGSSEEDDAPEPSGGDKQLLPGAEGYVGGHRTSKIMRFVDKITKSKYFQKATETEFIKKKIEEVSNTPLLLTVEVQECRGTLAVNIPPPPTDRVWYGFRKPPHVELKARPKLGEREVTLVHVTDWIEKKLEQEFQKVFVMPNMDDVYITIMHSAMDPRSTSCLLKDPPVEAADQP [TEX2]	-0.118	-0.212	-0.23	-0.062	50.1 °C	50.4 °C
MTTKRSLFVRLVPCRCLRGEEETVTTLDYSHCSLEQVPKEIFTFEKTLEELYLDANQIEELPKQLFNCQSLHKLSLPDNDLTTLPASIANLINLRELDVSKNGIQEFPENIKNCKVLTIVEASVNPISKLPDGFSQLLNLTQLYLNDAFLEFLPANFGRLTKLQILELRENQLKMLPKTMNRLTQLERLDLGSNEFTEVPEVLEQLSGLKEFWMDANRLTFIPGFIGSLKQLTYLDVSKNNIEMVEEGISTCENLQDLLLSSNSLQQLPETIGSLKNITTLKIDENQLMYLPDSIGGLISVEELDCSFNEVEALPSSIGQLTNLRTFAADHNYLQQLPPEIGSWKNITVLFLHSNKLETLPEEMGDMQKLKVINLSDNRLKNLPFSFTKLQQLTAMWLSDNQSKPLIPLQKETDSETQKMVLTNYMFPQQPRTEDVMFISDNESFNPSLWEEQRKQRAQVAFECDEDKDEREAPPREGNLKRYPTPYPDELKNMVKTVQTIVHRLKDEETNEDSGRDLKPHEDQQDINKDVGVKTSESTTTVKSKVDEREKYMIGNSVQKISEPEAEISPGSLPVTANMKASENLKHIVNHDDVFEESEELSSDEEMKMAEMRPPLIETSINQPKVVALSNNKKDDTKETDSLSDEVTHNSNQNNSNCSSPSRMSDSVSLNTDSSQDTSLCSPVKQTHIDINSKIRQEDENFNSLLQNGDILNSSTEEKFKAHDKKDFNLPEYDLNVEERLVLIEKSVDSTATADDTHKLDHINMNLNKLITNDTFQPEIMERSKTQDIVLGTSFLSINSKEETEHLENGNKYPNLESVNKVNGHSEETSQSPNRTEPHDSDCSVDLGISKSTEDLSPQKSGPVGSVVKSHSITNMEIGGLKIYDILSDNGPQQPSTTVKITSAVDGKNIVRSKSATLLYDQPLQVFTGSSSSSDLISGTKAIFKFDSNHNPEEPNIIRGPTSGPQSAPQIYGPPQYNIQYSSSAAVKDTLWHSKQNPQIDHASFPPQLLPRSESTENQSYAKHSANMNFSNHNNVRANTAYHLHQRLGPARHGEMWAISPNDRLIPAVTRSTIQRQSSVSSTASVNLGDPGSTRRAQIPEGDYLSYREFHSAGRTPPMMPGSQRPLSARTYSIDGPNASRPQSARPSINEIPERTMSVSDFNYSRTSPSKRPNARVGSEHSLLDPPGKSKVPRDWREQVLRHIEAKKLEKKHPQTSSSGDPCQDGIFISGQQNYSSATLSHKDVPPDSLMKMPLSNGQMGQPLRPQANYSQIHHPPQASVARHPSREQLIDYLMLKVAHQPPYTQPHCSPRQGHELAKQEIRVRVEKDPELGFSISGGVGGRGNPFRPDDDGIFVTRVQPEGPASKLLQPGDKIIQANGYSFINIEHGQAVSLLKTFQNTVELIIVREVSS [ERBB2IP]	-0.0785	0.246	1.12	-0.0185	48.8 °C	49 °C
